{"source": "paper PMC5029901", "target": "GST-Gag (HIV-1 Gag fused to GST, from pGEX-6P-3/Gag) (HIV-1)", "test": "SPR", "data": [{"substance": "FLAG-TSG101 (Tumor Susceptibility Gene 101) (from UniProt Q99816 1-390) (natural protein)", "values": [{"measurement": "Kd", "value": 55.2, "unit": "nM"}, {"measurement": "koff", "value": 0.0223, "unit": "s⁻¹"}, {"measurement": "kon", "value": 924000, "unit": "M⁻¹ s⁻¹"}]}]}
